Reference: patent publication US20210263001A1, “IMMOBILIZED ENZYMES AND MICROSOMES ON MAGNETIC SCAFFOLDS” (ZYMtronix Catalytic Systems, Inc., priority 2018, published 2021)

Target: T1, UGT1A6 (Homo sapiens, UniProt P19224)
T1 construct: purchased Corning 456416
T1 sequence (P19224 27-532): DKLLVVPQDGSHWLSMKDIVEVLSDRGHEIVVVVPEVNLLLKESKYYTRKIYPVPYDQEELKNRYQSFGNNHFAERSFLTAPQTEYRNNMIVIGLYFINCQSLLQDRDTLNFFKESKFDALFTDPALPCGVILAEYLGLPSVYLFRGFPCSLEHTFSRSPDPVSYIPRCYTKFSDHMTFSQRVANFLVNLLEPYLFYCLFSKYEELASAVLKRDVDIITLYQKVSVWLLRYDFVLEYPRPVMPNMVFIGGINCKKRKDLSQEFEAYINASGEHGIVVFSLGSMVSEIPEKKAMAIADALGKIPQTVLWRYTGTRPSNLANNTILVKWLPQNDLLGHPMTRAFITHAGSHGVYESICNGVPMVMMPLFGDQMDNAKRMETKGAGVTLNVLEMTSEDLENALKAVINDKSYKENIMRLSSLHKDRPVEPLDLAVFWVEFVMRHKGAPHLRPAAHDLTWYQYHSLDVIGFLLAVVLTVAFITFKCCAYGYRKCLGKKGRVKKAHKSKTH
Test: Activity of UGT1A6 immobilized on magnetite powder, BioVision fluorometric UGT activity assay (Example 10)
Type: biochemical
Details: 2 hours, 37° C., 500 μl reaction
Description: The UGT1A6 stock (5 mg/mL) was rapidly thawed in a […] and diluted in cold 50 mM Tris pH 7.0 to a final concentration of 25 μg/ml. 500 μl of UGT1A6 solution was added to 5 mg of magnetite powder and incubated for 1 hour at 4° C. with shaking. The immobilization yield was quantified by the Bradford method (Bradford reagent: Quick Start™ Bradford 1× Dye Reagent #5000205 from BioRad) by comparing it to UGT1A6 enzyme standards.
A fluorometric assay (BioVision UGT Activity Assay/Ligand Screening Kit, Cat #K692) was used to measure the activity of the free and immobilized UGT1A6. The assay utilizes a highly fluorescent UGT substrate and measures UGT activity by tracking the drop in fluorescence emission as the substrate is converted into a non-fluorescent glucuronide. UGT specific activity is calculated by comparing the fluorescence loss versus a control reaction performed in the absence of the required cofactor UDPGA. Duplicate reactions were performed in 0.5 dram glass vials (VWR® Vials, Borosilicate Glass, with Phenolic Screw Cap) with 500 μl reaction volumes at 37° C. with shaking for 2 hours. UGT1A6 reactions contained BioVision UGT Assay buffer with Alamethicin, BioVision UGT subtrate and the UDPGA cofactor. […] The product was detected by fluorescence at Ex/Em=415/502 nm and quantitated by comparing the drop in fluorescence to a standard curve of UGT substrate fluorescence.

BioVision UGT Activity Assay substrate consumed (average): 0.58 ± 0.39 nmol
B1: free UGT: Non-immobilized Corning Supersomes Human UGT1A6 enzyme (protein, UniProt P19224 27-532, looked up)
UDP-glucuronosyltransferase …: DKLLVVPQDGSHWLSMKDIVEVLSDRGHEIVVVVPEVNLLLKESKYYTRKIYPVPYDQEELKNRYQSFGNNHFAERSFLTAPQTEYRNNMIVIGLYFINCQSLLQDRDTLNFFKESKFDALFTDPALPCGVILAEYLGLPSVYLFRGFPCSLEHTFSRSPDPVSYIPRCYTKFSDHMTFSQRVANFLVNLLEPYLFYCLFSKYEELASAVLKRDVDIITLYQKVSVWLLRYDFVLEYPRPVMPNMVFIGGINCKKRKDLSQEFEAYINASGEHGIVVFSLGSMVSEIPEKKAMAIADALGKIPQTVLWRYTGTRPSNLANNTILVKWLPQNDLLGHPMTRAFITHAGSHGVYESICNGVPMVMMPLFGDQMDNAKRMETKGAGVTLNVLEMTSEDLENALKAVINDKSYKENIMRLSSLHKDRPVEPLDLAVFWVEFVMRHKGAPHLRPAAHDLTWYQYHSLDVIGFLLAVVLTVAFITFKCCAYGYRKCLGKKGRVKKAHKSKTH
modifications: Supersomes microsomal preparation
notes: Non-immobilized Corning Supersomes Human UGT1A6 enzyme
